In PMC9234269 one finds stoichiometry N (Aβ1–42 monomers per chaperone molecule) data, which are given here for three substances.

For this test, the target named is Aβ1–42 fibrils (sonicated, immobilized) (human) (UniProt P05067). Put plainly: ELISA; sonicated Aβ1–42 fibrils coated on a high binding plate (50 μl of 2.5 μg/ml, carbonate buffer pH 9.6, overnight 8°C); blocked with 2% BSA in PBS pH 7.4; chaperones in 2% BSA up to 5,000 nM, 2 h at room temperature; detected with polyclonal anti-6×His; bound amount estimated from standard curves of chaperone deposited directly (0–100 nM).
Turning to Drosophila HSP10 (natural protein), the stoichiometry N (Aβ1–42 monomers per chaperone molecule) is 70.

On to “GroES (from UniProt P0A6F9 1-97) (natural protein)”, for which the stoichiometry N (Aβ1–42 monomers per chaperone molecule) is 1400.

Turning to “Human HSP10 (from UniProt P61604 3-102) (natural protein)”, the stoichiometry N (Aβ1–42 monomers per chaperone molecule) was 800.
